Experimental data: patent US20200030452A1, “Process for the Manufacture of a Tumor-Vasculature Targeting Antitumor Agent” (priority 2016, published 2020)
Residues, ends and D or L forms follow the SMILES beside them. *: point of attachment. X1 = CCc1c2c(nc3ccc(OC(=O)[C@H]4CC[C@H](CNC(=O)[C@H]5CC[C@H](CN6C(=O)CC(*)C6=O)CC5)CC4)cc13)-c1cc3c(c(=O)n1C2)COC(=O)[C@]3(O)CC

Legend:
Assay type in all cases: in vivo
[1] = system: human colon HCT116 tumors; experiment: IF7-SN38 injected intravenously into nude mice carrying human colon HCT116 tumors; conditions: intravenous, low dosages
tumors = experiment: Treatment of mice with tumors using IF7-SN38
Description: (§1) Therefore, using our targeted therapy, a small amount of IF7-SN38 is required to be injected to patients. The efficiency of IF7-SN38 is unprecedented in mice, in particular for the brain malignancies. […] It is believed that IF7-SN38 would work far better than PEGylated SN38 by targeting malignant tumors including brain malignancy. The low dosage, specificity, and easily degrading nature of IF7-SN38 in targeted cells to release SN38, are the major factors for the superiority of our drug to PEG-SN38.

[2] = Crossing of the blood brain barrier; conditions: by passive transcytosis mechanism
Description: as §1

Q: With `CCc1c2c(nc3ccc(OC(=O)[C@H]4CC[C@H](CNC(=O)[C@H]5CC[C@H](CN6C(=O)CC(SC[C@H](NC(=O)[C@H](CCCNC(=N)N)NC(=O)[C@H](CCC(N)=O)NC(=O)[C@H](Cc7c[nH]c8ccccc78)NC(=O)[C@H](CC(C)C)NC(=O)[C@H](CC(C)C)NC(=O)[C@H](Cc7ccccc7)NC(=O)[C@@H](N)[C@@H](C)CC)C(=O)N[C@@H](CCCNC(=N)N)C(=O)N[C@@H](CCCNC(=N)N)C(=O)O)C6=O)CC5)CC4)cc13)-c1cc3c(c(=O)n1C2)COC(=O)[C@]3(O)CC` (stereo partly drawn) [IF7-SN38] (H-IFLLWQRC(X1)RR-OH; N-terminus and C-terminus assumed) as the compound, how does the side effects [1] read?
A: no apparent side effects

Q: And the “side effects in the treated mice” value (tumors)?
A: without producing any side effects

Q: And the blood brain barrier [2]?
A: overcomes blood brain barrier
